{"source": "paper PMC9262588", "molecular_target": "T1, FAM-tat peptide (UniProt P04608, also: FAM label, position not given here)", "T1 chain": "AAARKKRRQRRRAAA", "assay": "SPR", "note": "No end group written: not given here.", "data": [{"binder": "GGCAGAUCUGAGCCUGGGAGCUCUCUGCC (structured_RNA)", "note": "[biotin-TAR RNA]", "values": [{"measurement": "Kd", "result": 380, "unit": "nM"}]}]}
